# Measurements: patent US20240101645A1 (HENRY M JACKSON FOUNDATION FOR THE ADVANCEMENT OF MILITARY …, published 2024)
# Residue numbers refer to the chain shown, from its start.
# T1: HCoV-HKU1 spike antigens (bead panel) (HCoV-HKU1, UniProt Q5MQD0 13-1300)
# T1 sequence: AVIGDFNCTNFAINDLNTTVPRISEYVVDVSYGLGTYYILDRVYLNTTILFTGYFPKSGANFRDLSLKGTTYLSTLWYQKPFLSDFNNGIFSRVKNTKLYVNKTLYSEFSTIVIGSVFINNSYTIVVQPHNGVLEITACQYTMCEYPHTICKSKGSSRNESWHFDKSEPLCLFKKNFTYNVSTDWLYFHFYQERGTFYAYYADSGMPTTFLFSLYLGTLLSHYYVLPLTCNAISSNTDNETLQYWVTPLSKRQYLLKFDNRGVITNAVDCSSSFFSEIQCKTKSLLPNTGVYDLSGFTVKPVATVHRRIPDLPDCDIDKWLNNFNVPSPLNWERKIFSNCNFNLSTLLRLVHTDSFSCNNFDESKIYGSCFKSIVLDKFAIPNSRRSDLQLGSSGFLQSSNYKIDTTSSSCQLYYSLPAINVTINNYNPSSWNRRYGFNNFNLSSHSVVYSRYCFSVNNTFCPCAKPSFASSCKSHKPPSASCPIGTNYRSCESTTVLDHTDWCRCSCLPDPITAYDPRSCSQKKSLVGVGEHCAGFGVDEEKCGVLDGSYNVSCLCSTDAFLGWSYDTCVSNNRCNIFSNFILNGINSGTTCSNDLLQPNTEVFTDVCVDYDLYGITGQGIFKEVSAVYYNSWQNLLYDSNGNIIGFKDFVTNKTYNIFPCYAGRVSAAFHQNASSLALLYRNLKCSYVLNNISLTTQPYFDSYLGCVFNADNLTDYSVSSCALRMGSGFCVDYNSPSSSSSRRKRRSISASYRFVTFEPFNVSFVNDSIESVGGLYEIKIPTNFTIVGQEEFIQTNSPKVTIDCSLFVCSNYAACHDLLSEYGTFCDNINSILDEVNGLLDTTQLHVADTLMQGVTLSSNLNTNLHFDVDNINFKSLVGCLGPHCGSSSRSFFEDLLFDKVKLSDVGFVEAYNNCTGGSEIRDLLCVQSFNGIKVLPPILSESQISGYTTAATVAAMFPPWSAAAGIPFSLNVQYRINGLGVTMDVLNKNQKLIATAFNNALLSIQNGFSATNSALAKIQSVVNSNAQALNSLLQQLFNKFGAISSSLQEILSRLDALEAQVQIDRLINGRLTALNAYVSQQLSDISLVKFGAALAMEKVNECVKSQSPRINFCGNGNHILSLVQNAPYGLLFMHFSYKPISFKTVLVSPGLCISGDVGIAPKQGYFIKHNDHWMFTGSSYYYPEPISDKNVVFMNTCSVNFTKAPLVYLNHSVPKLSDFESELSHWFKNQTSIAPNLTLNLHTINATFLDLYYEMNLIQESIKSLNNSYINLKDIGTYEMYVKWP
# T2: HCoV-NL63 spike antigens (bead panel) (HCoV-NL63, UniProt Q6Q1S2 19-1296)
# T2 sequence: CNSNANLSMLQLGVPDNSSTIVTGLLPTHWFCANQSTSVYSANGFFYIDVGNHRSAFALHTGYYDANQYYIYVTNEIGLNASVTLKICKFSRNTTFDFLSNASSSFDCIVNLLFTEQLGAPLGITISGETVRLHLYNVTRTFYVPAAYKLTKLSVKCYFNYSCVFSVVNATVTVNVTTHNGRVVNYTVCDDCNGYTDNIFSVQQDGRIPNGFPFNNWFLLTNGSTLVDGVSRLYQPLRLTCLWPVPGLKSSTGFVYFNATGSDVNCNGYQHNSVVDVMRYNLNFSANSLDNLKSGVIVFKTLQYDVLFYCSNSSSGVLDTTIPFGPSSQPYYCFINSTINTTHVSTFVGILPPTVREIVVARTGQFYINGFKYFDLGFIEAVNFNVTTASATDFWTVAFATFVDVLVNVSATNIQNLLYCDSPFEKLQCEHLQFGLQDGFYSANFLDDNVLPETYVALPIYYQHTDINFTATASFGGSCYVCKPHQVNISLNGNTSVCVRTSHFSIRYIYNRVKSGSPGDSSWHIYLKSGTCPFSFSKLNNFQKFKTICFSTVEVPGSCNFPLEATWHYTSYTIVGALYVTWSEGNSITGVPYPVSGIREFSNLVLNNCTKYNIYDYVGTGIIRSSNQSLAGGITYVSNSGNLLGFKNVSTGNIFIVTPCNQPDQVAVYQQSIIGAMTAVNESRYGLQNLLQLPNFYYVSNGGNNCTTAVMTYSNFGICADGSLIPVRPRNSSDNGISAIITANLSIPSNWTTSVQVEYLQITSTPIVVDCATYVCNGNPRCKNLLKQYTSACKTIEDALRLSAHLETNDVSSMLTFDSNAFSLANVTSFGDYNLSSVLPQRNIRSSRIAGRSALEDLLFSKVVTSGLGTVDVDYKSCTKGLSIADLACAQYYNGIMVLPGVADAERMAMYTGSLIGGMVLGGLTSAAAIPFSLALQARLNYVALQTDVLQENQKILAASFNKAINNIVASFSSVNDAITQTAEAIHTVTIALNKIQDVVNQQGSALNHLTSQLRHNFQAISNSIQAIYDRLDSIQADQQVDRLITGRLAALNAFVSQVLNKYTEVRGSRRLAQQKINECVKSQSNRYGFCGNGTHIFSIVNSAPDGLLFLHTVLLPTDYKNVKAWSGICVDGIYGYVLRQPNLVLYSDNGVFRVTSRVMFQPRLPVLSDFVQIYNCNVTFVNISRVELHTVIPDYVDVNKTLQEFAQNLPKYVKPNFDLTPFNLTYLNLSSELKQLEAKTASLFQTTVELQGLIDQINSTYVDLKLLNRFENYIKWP
# B1: COV_1025 (antibody, V domains shown)
# VH: QVQLVESGGGVVQPGRSLRLSCAASGFTFNTYAMHWVRQAPGKGLEWVAIISYDGGNKYYADSMKGRFTISRDNSKNTLYLQMNSLRAEDTAVYYCARARTGNYYYGMDVWGQGTTVTVSS
# VL: not shown
# notes: human IgG1
# B2: COV_2196 (antibody, V domains shown)
# VH: QVQLVQSGAEVKKPGASVKVSCKVSGYTLIELSMHWVRQAPGKGLEWMGGFDPEDAKTIYAQKFQGRVTMTEDTSTDTAYMELSSLTFEDTAVYYCATTPAFMAAAGDFDYWGQGTLVTVSS
# VL: QPVLTQPSSVSVSPGQTATITCSGDVLAKKYARWFQQKPGQAPMLVIYKDTERPSGIPERFSGSSSGTTVTLTINGAQVEDEADYYCYSAAAWVFGGGTKLTVL
# notes: human IgG1
# B3: COV_3088 (antibody, V domains shown)
# VH: EVQLVESGGGLVQPGGSLRLSCAASGFTFSSYDMHWVRQATGKGLEWVSAIGTAGDTYYPGSVKGRFTISRENAKNSLYLQMNSLRAGDTAVYYCARGSGWPPFFDYWGQGTLVTVSS
# VL: SYELTQPPSVSVAPGKTARITCGGNNIGSKSVHWYQQKPGQAPVLVIYYDSDRPSGIPERFSGSNSGNTATLTISRVEAGDEADYYCQVWDSSSDHHWVFGGGTKLTVL
# notes: human IgG1
# B4: COV_1118 (antibody, V domains shown)
# VH: EVQLVESGGGLVKPGGSLRLSCAASGFSFSNYNMNWVRQAPGKGLEWVSYISSSSSYIYYADSVKGRFTISRDNAKNSLYLQMNSLRGEDTAVYSCAREASGAYYFDRSGYFDYWGQGTLVTVSP
# VL: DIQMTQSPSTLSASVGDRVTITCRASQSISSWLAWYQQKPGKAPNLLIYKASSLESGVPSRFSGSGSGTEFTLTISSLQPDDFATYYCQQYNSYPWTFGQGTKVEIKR
# notes: human IgG1
# B5: COV_1154 (antibody, V domains shown)
# VH: B4 VH with S28R, N31D
# VL: DIQMTQSPSTLSASVGDRVTITCRASQSISSWLAWYQQKPGKAPNLLIYKASSLESGVPSRFSGSGSGTEFTLTISSLQPYDFATYYCQQYNSYPWAFGQGTKVEMKR
# notes: human IgG1
# B6: COV_1136 (antibody, V domains shown)
# VH: B4 VH with S28T, N31D, Y32C, Y50S, S54R, G88A
# VL: B5 VL with Y81D, S93T, A97T, M106I
# notes: human IgG1
# B7: COV_2057 (antibody, V domains shown)
# VH: EVQLVQSGAEVKKPGESLKISCKGSGYSFISYWIAWVRQMPGKGLEWMGIIYPGDSDTTYSPSFQGQVTISADKSISTAYLQWSSLKASDTAIYYCARLLYYSDSSPLDSWGQGTLVTVSS
# VL: DIQMTQSPSSLSASVGDRVTITCRASQSISTYLNWYQQKPGKAPNLLIYAASSLQSGVPSRFSGSGSGTDFTLTISSLQPEDFATYYCQQSHSTPRTFGPGTKVDIK
# notes: human IgG1
# B8: COV_2103 (antibody, V domains shown)
# VH: EVQLVESGGGVVQPGRSLRLSCGASGFTFSSYGIHWVRQAPGKGLDWVAVIWHDGSQKYYGDSVKGRFTISRDNSKNTLYLQMNRLRAEDTAVYYCARDSGDDYDSSGYPIGNAFDLWGQGTMVTVSS
# VL: DIQMTQSPSTLSASVGDRVTITCRASQFINSWLAWYQQKPGKAPKLLIYKASSLETGVPSRFSGSGSGTEFTLTISSLQPDDFATYYCQQYNTYSFTFGPGTKVDIK
# notes: human IgG1
# B9: COV_2193 (antibody, V domains shown)
# VH: QVQLVQSGAEVKKPGASVKVSCKVSGYTLTDLSMHWVRQTPGKGLEWMGGFDAEDGETIYAQNFQGRVTMTEDTSIDVAYMELSSLRSEDTAVYYCATGSVGPDYWGQGTLVTVSS
# VL: SSELTQDPAVSVALGQTVRITCQGDSLRSYYASWFQQKPGQAPVLVIYLKNDRPSGIPDRFSGSSSGNTASLTITGAQAEDEADYYCNSRDSSGNHQVFGGGTKLTVL
# notes: human IgG1
# B10: COV_3053 (antibody, V domains shown)
# VH: EVQLVESGGGLVQPGRSLRLSCTASGFTLGDYAMTWVRQAPGKGLEWLGIIRNKRYGETKQYAASVKGRFTFSRDDSKGIGYLQRLSLKIEDTGVYYCTREHIVRDDAFDVWGQGTTVTVSS
# VL: DIVMTQSPDSLAVSLGERATINCKSSQSVLYSSNNKNYIAWYQQRPGQPPKLLIYWTSTRASGVPDRFSGSGSGTDFALTISSLQAEDVAVYYCQQYYTIPRTFGQGTKVEIK
# notes: human IgG1
# B11: COV_2100 (antibody, V domains shown)
# VH: EVQLVESGGGLVQPGGSLRLSCAASGFTFSSYDMYWVRQATGKGLEWVSAIGTAGDTYYPGSVKGRFTISRENAKNSLYLRMNSLRAGDTAVYFCARADKNTAMFFDYWGQGTLVTVSS
# VL: DIQMTQSPSSLSASVGDRVTITCRASQNINNFLHWYQQKPGNAPKLLIYAASTLQSGVPSRFSGSGSGTDFTLTISSLQPEDFATYYCQQSYSTPGGTFGGGTKVEIK
# notes: human IgG1
# B12: COV_2137 (antibody, V domains shown)
# VH: EVQLVESGGGLVKPGGSLRLSCAASGFTFSSYTMNWVRQAPGKGLEWVSSISSGSSFIYYADSLRGRFTISRDNAKNSLYLQMNSLRAEDTAVYYCARAPEPQSVIYAYWYFDLWGRGTLVTVSS
# VL: QSALTQPASVSGSPGQSITFSCTGTSSDVGSYNLVSWYQQYPGKAPKLMIYEVNKRPSGVSNRFSGSKSGNTASLTISGLQAEDEADYYCCSYAGSSTFYVFGTGTKVTVLG
# notes: human IgG1
# B13: COV_1050 (antibody, V domains shown)
# VH: QVQLVESGGGVVQPGRSLRLSCAASRFTFSSYAMHWVRQAPGKGLEWVAVISFDGSNKYYADSVKGRFTIFRDNSKNTLSLQMNSLRTEDTAMYYCASPAGYYESLWGQGTLVTVSS
# VL: SYELTQPPSVSVSPGQTARVTCSGDALSKQYGFWYQQKPGQAPTLVIYKDTERPSGIPERFSGSGSGTTVTLTISGVQAEDEADYYCQSTDNSGRWVFGGGTKLTVLG
# notes: human IgG1
# B14: COV_2134 (antibody, V domains shown)
# VH: EVQLVESGGGVVQPGRSLRLSCAASGFIFSSYGMYWVRQAPGKGLEWVAVIWYDGSNKYYADSVKGRFTISRDNSKNTLYLQMNSLRAEDTAVYYCARDLSSSSGWDDYYYYYGMDVWGQGTTVTVSS
# VL: not shown
# notes: human IgG1
# Target: T1, HCoV-HKU1 spike antigens (bead panel)
# Assay: multiplex bead assay
row,Binder,binding result
1,B1,no binding
2,B2,no binding
3,B3,no binding
4,B4,no binding
5,B5,no binding
6,B6,no binding
7,B7,no binding
8,B8,no binding
9,B9,no binding
10,B10,no binding
11,B11,no binding
12,B12,no binding
13,B13,no binding
14,B14,no binding

# Target: T2, HCoV-NL63 spike antigens (bead panel)
# Assay: multiplex bead assay
row,Binder,binding result
1,B1,no binding
2,B2,no binding
3,B3,no binding
4,B4,no binding
5,B5,no binding
6,B6,no binding
7,B7,no binding
8,B8,no binding
9,B9,no binding
10,B10,no binding
11,B11,no binding
12,B12,no binding
13,B13,no binding
14,B14,no binding
